What was measured:
[1] = system: 293 HEK cells overexpressing zcytor19; test: Inhibition of ligand-induced ISRE-luciferase signaling by soluble receptors; type: cell-based, human; settings: 10 ng/ml ligand, 10 micrograms/ml soluble receptor, 4-hour; relative to PBS alone
EMCV = EMCV antiviral assay (MTT dye uptake) in HepG2 cells; type: cell-based, encephalomyocarditis virus; settings: cytokine 24 hours before EMCV challenge
[2] = system: liver, spleen and blood of mice; test: ISG gene expression (OAS, Pkr, Mx1) in liver, spleen and blood of injected C57BL/6 mice (real-time PCR); type: in vivo, mouse; settings: for OAS-1 hr / OAS-6 hr / OAS-24 hr / OAS-48 hr: single injection of 250 μg i.v., average of 5 animals; for OAS (24 hr): fold expression relative to HPRT
Procedure: Mice were sacrificed at various time points (1 hr-48 hr). Spleens and livers were isolated from mice, and RNA was isolated. RNA was also isolated from the blood cells. The cells were pelleted and RNA isolated from pellets using RNAEasy®-kit (Qiagen). RNA was treated with DNase (Amicon) to rid RNA of any contaminating DNA. cDNA was generated using Perkin-Elmer RT mix (Perkin-Elmer). ISG gene induction was measured by real-time PCR using primers and probes specific for mouse OAS, Pkr and Mx1. To obtain quantitative data, HPRT real-time PCR was duplexed with ISG PCR. A standard curve was calculated using known amounts of IFN-stimulated mouse PBLs. All data are shown as expression relative to internal HPRT expression.

Rhino 9 [3] = type: cell-based, rhino virus; settings: Rhino 9, HeLa cells, Neutral Red Assay
AML-12 cells = test: ISG induction in the mouse liver cell line AML-12 (real-time PCR); type: cell-based; settings: AML-12, 20 ng/ml, 48 hour time point; mRNA relative to HPRT gene expression
Procedure: AML-12 cells were plated in 6-well plates in complete DMEM media at a concentration of 2×10^6 cells/well. […] As a control, cells were either stimulated with mouse IFNα (positive control) or unstimulated (negative). […] RNA was isolated from cell pellets using RNAEasy-kit® (Qiagen, Valencia, Calif.). RNA was treated with DNase (Millipore, Billerica, Mass.) to clean RNA of any contaminating DNA. cDNA was generated using Perkin-Elmer RT mix. ISG gene induction was evaluated by real-time PCR using primers and probes specific for mouse OAS, Pkr and Mx1. To obtain quantitative data, HPRT real-time PCR was duplexed with ISG PCR. A standard curve was obtained using known amounts of RNA from IFN-stimulated mouse PBLs. All data are shown as expression relative to internal HPRT expression.

Vaccinia virus = type: cell-based; settings: Vero cells, Neutral Red Assay
Coxsackie B4 virus = type: cell-based; settings: KB
Adenovirus = type: cell-based; settings: A549 cells, Neutral Red Assay
Rhino 9 [4] = type: cell-based, rhino virus; settings: Rhino 9, HeLa
Dengue virus = type: cell-based; settings: Vero cells, Neutral Red Assay
[5] = system: Influenza (type A [H3N2]); type: cell-based; settings: Maden-Darby Canine Kidney cells, Neutral Red Assay
Rhino 2 = type: cell-based, rhino virus; settings: Rhino 2, KB
West Nile virus = type: cell-based; settings: Vero cells, Neutral Red Assay

B1: IL-29: human IL-29 cytokine polypeptide (zcyto21), e.g. SEQ ID NO:20 (protein, listed as Homo sapiens)
chain: MAAAWTVVLVTLVLGLAVAGPVPTSKPTTTGKGCHIGRFKSLSPQELASFKKARDALEESLKLKNWSCSSPVFPGNWDLRLLQVRERPVALEAELALTLKVLEAAAGPALEDVLDQPLHTLHHILSQLQACIQPQPTAGPRPRGRLHHWLHRLQEAPKKESAGCLEASVTFNLFRLLTRDLKYVADGNLCLRTSTHPEST
modifications: SIGNAL (1)...(19)
[1]
  Percent Inhibition of Ligand-induced ISRE Signaling by HuCRF2-4-Fc: 79%
  Percent Inhibition of Ligand-induced ISRE Signaling by Huzcytor19-Fc: 45%
  Percent Inhibition of Ligand-induced ISRE Signaling by Huzcytor19-Fc/huCRF2-4-Fc: 16%
  Percent Inhibition of Ligand-induced ISRE Signaling by Muzcytor19-Ig: 103%
EMCV
  EC50 (antiviral activity, OD570): 0.0006 mg/L
[2]; C57BL/6 mice
  sustained expression of ISGs above control mice: up to 48 hours
  time of peak expression of ISGs after injection: 1 to 6 h
[2]; C57BL/6 mice, i.p or i.v, 10 μg-250 μg
  ISG gene expression (OAS, Pkr, Mx1) in the livers, spleen and blood of mice: induced ISG gene expression
[2]; blood, C57BL/6 mice
  OAS-1 hr: 12 fold expression relative to HPRT gene expression
  OAS-6 hr: 18 fold expression relative to HPRT gene expression
  OAS-24 hr: 11 fold expression relative to HPRT gene expression
  OAS-48 hr: 10 fold expression relative to HPRT gene expression
[2]; liver, C57BL/6 mice
  OAS-1 hr: 2.5 fold expression relative to HPRT gene expression
  OAS-6 hr: 4 fold expression relative to HPRT gene expression
  OAS-24 hr: 2.5 fold expression relative to HPRT gene expression
  OAS-48 hr: 2.8 fold expression relative to HPRT gene expression
[2]; mice injected with 10 μg
  OAS (24 hr): 3.7
[2]; mice injected with 50 μg
  OAS (24 hr): 4.2
[2]; mice injected with 250 μg
  OAS (24 hr): 6
[2]; spleen, C57BL/6 mice
  OAS-1 hr: 4 fold expression relative to HPRT gene expression
  OAS-6 hr: 6 fold expression relative to HPRT gene expression
  OAS-24 hr: 3.2 fold expression relative to HPRT gene expression
  OAS-48 hr: 3.2 fold expression relative to HPRT gene expression
Rhino 9 [3]
  EC50 NR: 0.982 mg/L
  IC50 NR: >10 mg/L
AML-12 cells
  Mx1: 0.07
  OAS: 0.04
  PkR: 0.02
Vaccinia virus
  EC50 NR: >10 mg/L
  IC50 NR: >10 mg/L
Coxsackie B4 virus
  EC50 Visual: >10 mg/L
Coxsackie B4 virus; numerator of SI
  IC50 Visual: >10 mg/L
Adenovirus
  EC50 NR: >10 mg/L
  IC50 NR: >10 mg/L
Rhino 9 [4]
  EC50 Visual: >10 mg/L
Rhino 9 [4]; numerator of SI
  IC50 Visual: >10 mg/L
Dengue virus
  EC50 NR: 0.05 mg/L
  IC50 NR: >10 mg/L
[5]
  EC50 NR: >10 mg/L
  IC50 NR: >10 mg/L
Rhino 2
  EC50 Visual: >10 mg/L
Rhino 2; numerator of SI
  IC50 Visual: >10 mg/L
West Nile virus
  EC50 NR: 0.00025 mg/L
  IC50 NR: >10 mg/L
